Series [1] addresses T1, Homo sapiens Elp123 subcomplex with Elp1 Δ1132–1224 (Homo sapiens, UniProt O95163 1-1332; Q6IA86 1-826; Q9H9T3 1-547, Δ1132–1224).
T1 construct: Elp2, human, ORF; Elp3, human, ORF; source: Sf9-3 insect cells (baculovirus, biGBac), purified (StrepTrap, heparin, Superose 6); not shown: Twin-Strep-tag, C-terminal, kept; copies: 2 + 2 + 2
Nature of the series: pull-down; 10 μg bait, 20 μg prey; Elp123 on StrepTactin Sepharose by Twin-Strep-tagged Elp3, or Elp456 on anti-DYKDDDDK resin by FLAG-tagged Elp6; 30-60 min at 4°C; washes in 20 mM HEPES pH 7.5, 100 mM NaCl, 1 mM DTT, 0.05% Tween 20; SDS-PAGE with Coomassie or silver stain; also with ATP and bulk tRNA. Conditions: both partners purified.

The target of series [2] is T2, Homo sapiens Elp123 subcomplex, wild type (Homo sapiens, UniProt O95163 1-1332; Q6IA86 1-826; Q9H9T3 1-547).
T2 construct: Elp1, human, ORF; Elp2, human, ORF; Elp3, human, ORF; also called human Elp123; source: Sf9-3 insect cells (baculovirus, biGBac), purified (StrepTrap, heparin, Superose 6); not shown: Twin-Strep-tag, C-terminal, kept; copies: 2 + 2 + 2
Nature of the series: SEC; Elp123 incubated with the respective Elp456 for 30 min at 25°C at 1:2 weight ratio, then Superose 6 Increase 10/300 GL in 20 mM HEPES pH 7.5, 100 mM NaCl, 5 mM DTT. The conditions noted are these: both partners purified.

For series [3], the target named is T2, Homo sapiens Elp123 subcomplex, wild …. Nature of the series: pull-down; 10 μg bait, 20 μg prey; Elp123 on StrepTactin Sepharose by Twin-Strep-tagged Elp3, or Elp456 on anti-DYKDDDDK resin by FLAG-tagged Elp6; 30-60 min at 4°C; washes in 20 mM HEPES pH 7.5, 100 mM NaCl, 1 mM DTT, 0.05% Tween 20; SDS-PAGE with Coomassie or silver stain; also with ATP and bulk tRNA. Conditions: both partners purified.

Series [4] deals with the molecule itself. Nature of the series: cryo-EM structure; ScElongator purified from overexpressing yeast, native sample (4.35 Å) and BS3-stabilised sample (6.6 Å; two-lobed map 17.2 Å); sample buffer 20 mM HEPES pH 7.5, 100 mM NaCl, 3 mM DTT.

T2 sequence (O95163 whole entry, chain 1 of 3): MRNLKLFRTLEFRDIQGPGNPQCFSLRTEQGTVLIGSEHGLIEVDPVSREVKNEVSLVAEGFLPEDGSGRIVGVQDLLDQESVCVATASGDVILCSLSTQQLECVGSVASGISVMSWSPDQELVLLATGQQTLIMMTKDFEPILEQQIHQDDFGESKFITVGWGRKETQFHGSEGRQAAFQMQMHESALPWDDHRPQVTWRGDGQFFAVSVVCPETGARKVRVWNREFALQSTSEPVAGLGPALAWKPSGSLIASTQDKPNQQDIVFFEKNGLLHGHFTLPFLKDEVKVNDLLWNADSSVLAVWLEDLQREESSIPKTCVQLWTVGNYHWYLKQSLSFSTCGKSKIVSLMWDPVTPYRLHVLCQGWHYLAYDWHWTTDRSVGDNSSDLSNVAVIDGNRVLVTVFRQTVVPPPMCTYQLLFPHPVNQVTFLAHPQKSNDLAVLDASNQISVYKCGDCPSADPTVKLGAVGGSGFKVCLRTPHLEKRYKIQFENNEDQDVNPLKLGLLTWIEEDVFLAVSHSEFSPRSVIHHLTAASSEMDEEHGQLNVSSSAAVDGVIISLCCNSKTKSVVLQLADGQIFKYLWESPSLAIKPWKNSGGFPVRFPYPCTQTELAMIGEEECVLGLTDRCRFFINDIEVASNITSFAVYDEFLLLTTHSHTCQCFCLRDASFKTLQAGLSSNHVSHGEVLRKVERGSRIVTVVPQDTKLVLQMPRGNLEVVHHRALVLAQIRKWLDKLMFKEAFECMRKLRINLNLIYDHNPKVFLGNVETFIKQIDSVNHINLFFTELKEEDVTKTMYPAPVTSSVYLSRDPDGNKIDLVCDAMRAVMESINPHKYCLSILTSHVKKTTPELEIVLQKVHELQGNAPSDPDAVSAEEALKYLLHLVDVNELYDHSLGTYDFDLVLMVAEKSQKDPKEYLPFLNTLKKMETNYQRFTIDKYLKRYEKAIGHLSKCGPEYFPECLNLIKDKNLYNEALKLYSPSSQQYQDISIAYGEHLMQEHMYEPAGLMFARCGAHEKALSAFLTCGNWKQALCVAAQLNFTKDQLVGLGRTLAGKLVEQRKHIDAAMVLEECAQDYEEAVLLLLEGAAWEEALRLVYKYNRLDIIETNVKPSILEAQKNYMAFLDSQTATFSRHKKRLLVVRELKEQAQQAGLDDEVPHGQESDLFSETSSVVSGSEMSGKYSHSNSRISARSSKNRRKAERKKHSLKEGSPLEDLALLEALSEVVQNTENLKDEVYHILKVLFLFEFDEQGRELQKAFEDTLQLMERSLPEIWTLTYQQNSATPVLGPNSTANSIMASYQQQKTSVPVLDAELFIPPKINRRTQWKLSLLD
T2 sequence (Q6IA86 whole entry, chain 2 of 3): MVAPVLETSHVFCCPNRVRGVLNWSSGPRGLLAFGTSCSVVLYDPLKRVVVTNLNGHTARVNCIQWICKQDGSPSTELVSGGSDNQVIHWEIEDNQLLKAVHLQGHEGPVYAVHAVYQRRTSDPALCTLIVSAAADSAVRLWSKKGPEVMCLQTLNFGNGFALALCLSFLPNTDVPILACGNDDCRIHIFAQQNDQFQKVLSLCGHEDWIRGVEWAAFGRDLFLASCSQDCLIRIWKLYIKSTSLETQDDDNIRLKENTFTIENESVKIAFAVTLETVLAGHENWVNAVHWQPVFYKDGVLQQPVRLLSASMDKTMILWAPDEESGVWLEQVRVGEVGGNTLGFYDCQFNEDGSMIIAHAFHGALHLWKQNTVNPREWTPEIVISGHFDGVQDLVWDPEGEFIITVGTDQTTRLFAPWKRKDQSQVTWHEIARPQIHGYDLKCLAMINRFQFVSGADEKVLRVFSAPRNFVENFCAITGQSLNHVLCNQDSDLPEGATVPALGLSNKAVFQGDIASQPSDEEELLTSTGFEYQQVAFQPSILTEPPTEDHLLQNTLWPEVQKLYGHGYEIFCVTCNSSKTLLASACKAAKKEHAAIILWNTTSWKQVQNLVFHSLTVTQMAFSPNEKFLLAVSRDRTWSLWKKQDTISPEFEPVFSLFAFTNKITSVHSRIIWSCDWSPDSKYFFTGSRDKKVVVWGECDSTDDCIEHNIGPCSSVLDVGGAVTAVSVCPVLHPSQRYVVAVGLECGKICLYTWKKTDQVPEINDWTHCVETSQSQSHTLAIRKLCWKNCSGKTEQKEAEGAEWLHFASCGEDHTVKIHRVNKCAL
T2 sequence (Q9H9T3 whole entry, chain 3 of 3): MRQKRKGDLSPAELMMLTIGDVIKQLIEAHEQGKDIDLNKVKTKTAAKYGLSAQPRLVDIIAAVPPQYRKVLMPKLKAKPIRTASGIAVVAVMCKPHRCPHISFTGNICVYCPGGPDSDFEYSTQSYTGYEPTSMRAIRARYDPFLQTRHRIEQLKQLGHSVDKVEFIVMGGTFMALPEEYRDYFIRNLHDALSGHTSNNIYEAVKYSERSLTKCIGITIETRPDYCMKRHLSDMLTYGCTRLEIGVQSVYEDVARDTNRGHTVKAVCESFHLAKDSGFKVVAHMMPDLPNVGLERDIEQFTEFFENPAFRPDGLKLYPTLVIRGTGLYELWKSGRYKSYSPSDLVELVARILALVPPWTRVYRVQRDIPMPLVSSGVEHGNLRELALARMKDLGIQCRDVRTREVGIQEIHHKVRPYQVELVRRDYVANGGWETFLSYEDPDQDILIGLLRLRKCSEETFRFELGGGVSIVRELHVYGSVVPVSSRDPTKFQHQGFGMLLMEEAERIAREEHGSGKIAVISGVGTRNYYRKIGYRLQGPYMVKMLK
T1 sequence (O95163 other isoform, or with tags, fused parts or gaps Δ1132–1224 | Δ1132–1224 | mutant, chain 1 of 3): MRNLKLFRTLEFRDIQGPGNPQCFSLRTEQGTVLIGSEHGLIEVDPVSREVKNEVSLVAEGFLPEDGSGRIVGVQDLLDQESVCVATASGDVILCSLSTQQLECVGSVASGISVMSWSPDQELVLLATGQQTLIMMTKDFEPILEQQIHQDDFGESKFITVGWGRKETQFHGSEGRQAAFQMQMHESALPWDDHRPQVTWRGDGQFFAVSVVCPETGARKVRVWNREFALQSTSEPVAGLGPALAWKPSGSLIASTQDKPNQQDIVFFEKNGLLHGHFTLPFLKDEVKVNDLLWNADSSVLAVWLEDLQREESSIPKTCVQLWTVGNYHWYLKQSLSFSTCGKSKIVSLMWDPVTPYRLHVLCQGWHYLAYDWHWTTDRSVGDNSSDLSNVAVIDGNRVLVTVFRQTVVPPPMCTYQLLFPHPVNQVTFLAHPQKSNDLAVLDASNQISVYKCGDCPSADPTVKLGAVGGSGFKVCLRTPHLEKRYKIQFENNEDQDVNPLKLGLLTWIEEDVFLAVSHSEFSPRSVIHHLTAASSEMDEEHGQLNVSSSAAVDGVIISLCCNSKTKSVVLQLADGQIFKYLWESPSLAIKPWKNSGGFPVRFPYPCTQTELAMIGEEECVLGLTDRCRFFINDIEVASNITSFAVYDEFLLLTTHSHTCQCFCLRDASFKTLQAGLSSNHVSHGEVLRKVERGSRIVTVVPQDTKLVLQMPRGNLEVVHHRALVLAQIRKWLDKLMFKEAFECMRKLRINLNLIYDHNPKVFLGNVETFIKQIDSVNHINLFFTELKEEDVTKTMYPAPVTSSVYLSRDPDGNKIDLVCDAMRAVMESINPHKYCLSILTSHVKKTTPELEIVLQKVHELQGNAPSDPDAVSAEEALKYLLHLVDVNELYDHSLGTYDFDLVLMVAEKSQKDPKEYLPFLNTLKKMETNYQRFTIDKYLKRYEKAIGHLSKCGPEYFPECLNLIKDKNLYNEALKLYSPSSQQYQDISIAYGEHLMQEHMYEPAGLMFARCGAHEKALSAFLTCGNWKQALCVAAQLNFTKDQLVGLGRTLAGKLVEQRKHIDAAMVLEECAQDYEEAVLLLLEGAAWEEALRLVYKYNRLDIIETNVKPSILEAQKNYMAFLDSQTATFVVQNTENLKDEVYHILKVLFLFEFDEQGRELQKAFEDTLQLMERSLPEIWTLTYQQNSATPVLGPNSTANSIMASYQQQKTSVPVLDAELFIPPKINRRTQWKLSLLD
T1 sequence (Q6IA86 whole entry, stated change not applied, chain 2 of 3): as the sequence (Q6IA86 whole entry, chain 2 of 3) above
T1 sequence (Q9H9T3 whole entry, stated change not applied, chain 3 of 3): as the sequence (Q9H9T3 whole entry, chain 3 of 3) above

B1: Homo sapiens Elp456 subcomplex, wild type (complex)
chain 1: MAAVATCGSVAASTGSAVATASKSNVTSFQRRGPRASVTNDSGPRLVSIAGTRPSVRNGQLLVSTGLPALDQLLGGGLAVGTVLLIEEDKYNIYSPLLFKYFLAEGIVNGHTLLVASAKEDPANILQELPAPLLDDKCKKEFDEDVYNHKTPESNIKMKIAWRYQLLPKMEIGPVSSSRFGHYYDASKRMPQELIEASNWHGFFLPEKISSTLKVEPCSLTPGYTKLLQFIQNIIYEEGFDGSNPQKKQRNILRIGIQNLGSPLWGDDICCAENGGNSHSLTKFLYVLRGLLRTSLSACIITMPTHLIQNKAIIARVTTLSDVVVGLESFIGSERETNPLYKDYHGLIHIRQIPRLNNLICDESDVKDLAFKLKRKLFTIERLHLPPDLSDTVSRSSKMDLAESAKRLGPGCGMMAGGKKHLDF
chain 2: MLDSLLALGGLVLLRDSVEWEGRSLLKALVKKSALCGEQVHILGCEVSEEEFREGFDSDINNRLVYHDFFRDPLNWSKTEEAFPGGPLGALRAMCKRTDPVPVTIALDSLSWLLLRLPCTTLCQVLHAVSHQDSCPGDSSSVGKVSVLGLLHEELHGPGPVGALSSLAQTEVTLGGTMGQASAHILCRRPRQRPTDQTQWFSILPDFSLDLQEGPSVESQPYSDPHIPPVDPTTHLTFNLHLSKKEREARDSLILPFQFSSEKQQALLRPRPGQATSHIFYEPDAYDDLDQEDPDDDLDI
chain 3: MFVELNNLLNTTPDRAEQGKLTLLCDAKTDGSFLVHHFLSFYLKANCKVCFVALIQSFSHYSIVGQKLGVSLTMARERGQLVFLEGLKSAVDVVFQAQKEPHPLQFLREANAGNLKPLFEFVREALKPVDSGEARWTYPVLLVDDLSVLLSLGMGAVAVLDFIHYCRATVCWELKGNMVVLVHDSGDAEDEENDILLNGLSHQSHLILRAEGLATGFCRDVHGQLRILWRRPSQPAVHRDQSFTYQYKIQDKSVSFFAKGMSPAVL
notes: Elp4, human, ORF; Elp5, human, ORF; Elp6, human, ORF; also called human Elp456; source: Hi-5 insect cells (baculovirus, biGBac), purified (IgG Sepharose with TEV elution, Superose 6); not shown: FLAG, C-terminal, kept; Protein A, C-terminal, cleaved; copies: 2 + 2 + 2
As to B1, the binding result in series [1] and in series [2] was “binds” throughout.

B2: Homo sapiens Elp456 subcomplex with Elp4 Δ133–175 (complex)
chain 1: MAAVATCGSVAASTGSAVATASKSNVTSFQRRGPRASVTNDSGPRLVSIAGTRPSVRNGQLLVSTGLPALDQLLGGGLAVGTVLLIEEDKYNIYSPLLFKYFLAEGIVNGHTLLVASAKEDPANILQELPAPSSSRFGHYYDASKRMPQELIEASNWHGFFLPEKISSTLKVEPCSLTPGYTKLLQFIQNIIYEEGFDGSNPQKKQRNILRIGIQNLGSPLWGDDICCAENGGNSHSLTKFLYVLRGLLRTSLSACIITMPTHLIQNKAIIARVTTLSDVVVGLESFIGSERETNPLYKDYHGLIHIRQIPRLNNLICDESDVKDLAFKLKRKLFTIERLHLPPDLSDTVSRSSKMDLAESAKRLGPGCGMMAGGKKHLDF
chain 2: B1 chain 2
chain 3: B1 chain 3
notes: Elp5, human, ORF; Elp6, human, ORF; source: Hi-5 insect cells (baculovirus, biGBac), purified (IgG Sepharose with TEV elution, Superose 6); not shown: FLAG, C-terminal, kept; Protein A, C-terminal, cleaved; copies: 2 + 2 + 2
Regarding B2, the binding result in series [3] is reported as “binds”.

B3: Saccharomyces cerevisiae Elp1 (natural protein, UniProt Q06706 1-1349, looked up)
chain: MVEHDKSGSKRQELRSNMRNLITLNKGKFKPTASTAEGDEDDLSFTLLDSVFDTLSDSITCVLGSTDIGAIEVQQFMKDGSRNVLASFNIQTFDDKLLSFVHFADINQLVFVFEQGDIITATYDPVSLDPAETLIEIMGTIDNGIAAAQWSYDEETLAMVTKDRNVVVLSKLFEPISEYHLEVDDLKISKHVTVGWGKKETQFRGKGARAMEREALASLKASGLVGNQLRDPTMPYMVDTGDVTALDSHEITISWRGDCDYFAVSSVEEVPDEDDETKSIKRRAFRVFSREGQLDSASEPVTGMEHQLSWKPQGSLIASIQRKTDLGEEDSVDVIFFERNGLRHGEFDTRLPLDEKVESVCWNSNSEALAVVLANRIQLWTSKNYHWYLKQELYASDISYVKWHPEKDFTLMFSDAGFINIVDFAYKMAQGPTLEPFDNGTSLVVDGRTVNITPLALANVPPPMYYRDFETPGNVLDVACSFSNEIYAAINKDVLIFAAVPSIEEMKKGKHPSIVCEFPKSEFTSEVDSLRQVAFINDSIVGVLLDTDNLSRIALLDIQDITQPTLITIVEVYDKIVLLRSDFDYNHLVYETRDGTVCQLDAEGQLMEITKFPQLVRDFRVKRVHNTSAEDDDNWSAESSELVAFGITNNGKLFANQVLLASAVTSLEITDSFLLFTTAQHNLQFVHLNSTDFKPLPLVEEGVEDERVRAIERGSILVSVIPSKSSVVLQATRGNLETIYPRIMVLAEVRKNIMAKRYKEAFIVCRTHRINLDILHDYAPELFIENLEVFINQIGRVDYLNLFISCLSEDDVTKTKYKETLYSGISKSFGMEPAPLTEMQIYMKKKMFDPKTSKVNKICDAVLNVLLSNPEYKKKYLQTIITAYASQNPQNLSAALKLISELENSEEKDSCVTYLCFLQDVNVVYKSALSLYDVSLALLVAQKSQMDPREYLPFLQELQDNEPLRRKFLIDDYLGNYEKALEHLSEIDKDGNVSEEVIDYVESHDLYKHGLALYRYDSEKQNVIYNIYAKHLSSNQMYTDAAVAYEMLGKLKEAMGAYQSAKRWREAMSIAVQKFPEEVESVAEELISSLTFEHRYVDAADIQLEYLDNVKEAVALYCKAYRYDIASLVAIKAKKDELLEEVVDPGLGEGFGIIAELLADCKGQINSQLRRLRELRAKKEENPYAFYGQETEQADDVSVAPSETSTQESFFTRYTGKTGGTAKTGASRRTAKNKRREERKRARGKKGTIYEEEYLVQSVGRLIERLNQTKPDAVRVVEGLCRRNMREQAHQIQKNFVEVLDLLKANVKEIYSISEKDRERVNENGEVYYIPEIPVPEIHDFPKSHIVDF
notes: Elp1, S. cerevisiae, full-length ORF; also called ScElp1; source: S. cerevisiae DS1-2b, overexpressed, purified within ScElongator
On to B3, for which the binding result in series [4] was “binds”.

For the origin of these results see article PMC10018365, “Cryo-EM structure of the fully assembled Elongator complex” (Nucleic Acids Research, 2023).
